This is an account of results in patent US9505841B2, “Use of an anti-Ang2 antibody” (Samsung Electronics Co., Ltd., priority 2013, dated 2016).

One assay has as its system LLC tumor. Put plainly: Co-administration of anti-Ang2 antibody and cisplatin in LLC lung cancer animal model. The format is in vivo, mouse. Conditions: LLC mice; antibody 10 mg/kg i.p. every three days, five times; cisplatin 3 mg/kg i.p. once; control Fc of IgG1. The method, then: The synergistic effect of co-treatment of antibody 10D6 and cisplatin was examined.
In particular, referring to Example 14, LLC tumor cells were subcutaneously injected into mice. When the size of tumors reached 50˜100 mm^3, anti-Ang2 antibody 10D6 was injected at the concentration of 10 mg/kg via an intraperitoneal injection every three days a total of five times. After administering antibody 10D6 twice, 3 mg/kg of cisplatin (Sigma-Aldrich) was intraperitoneally injected once. The size of tumor (V) was calculated using the following formula: Volume (V)=(width)2×length/2
For comparison, the same experiment was performed to a control group treated with Fc of IgG1 and a comparative group treated with antibody 4H10.
In addition, an experiment was performed to examine whether the synergistic effect obtained by co-administration of 10D6 and cisplatin as described above is due to the increased transporting efficiency of the administered cisplatin induced by the vascular normalization by treatment of 10D6. Cisplatin binds to DNA in a living body and induces crosslinking, thereby inducing cell death. Rat monoclonal anti-Cisplatin modified DNA (CP9/19) antibody (1:200, Abcam), which is capable of binding to DNA modified by cisplatin in tumor frozen sections, and hamster anti-CD31 antibody (1:200, Millipore), were used for immunofluorescence staining, and fluorescence images were obtained using LSM5 confocal microscope (Zeiss). In addition, to examine necrotic region, the tumor frozen sections were stained with H&E according to standard protocol, and then, Eosin+ cell region in tumor was observed. The obtained results are illustrated in FIG. 18C.

For assay [1], the system named is LLC (Lewis Lung Carcinoma). Put plainly: LLC tumor growth model. It counts as in vivo, mouse. Conditions: LLC in C57BL/6 mice; 10 mg/kg intraperitoneal three times a week; control Fc of IgG1. The method, then: To see the tumor growth inhibitory effects of Ang2 antibody, a […] Xenograft model using a LLC (Lewis Lung Carcinoma) was employed.
LLC cells (ATCC) were cultured using 10% FBS (Gibco)-supplemented DMEM (Gibco) media. 1×10^6 of LLC cells were re-suspended in 100 ul of PBS (Gibco) and then subcutaneously injected into 6˜8-week-old C57BL/6 mice (Jackson Laboratory) anesthetized with 1˜2% isoflurane.
When the size of tumors reached 50˜100 mm^3, anti-Ang2 antibody (10D6) was injected at the concentration of 10 mg/kg via an intraperitoneal injection three times a week and the size of the tumors was measured.
The size of tumor (V) was calculated using the following formula: Volume (V)=(width)2×length/2
For comparison, the same experiment was performed to a control group treated with Fc of IgG1 and a comparative group treated with antibody 4H10 (refer to Example 3).

Another assay concerns the target T1, Ang2-Tie2 binding (Homo sapiens, UniProt O15123).
T1 construct: purchased R&D Systems (hTie2-Fc)
T1 sequence (O15123 19-496): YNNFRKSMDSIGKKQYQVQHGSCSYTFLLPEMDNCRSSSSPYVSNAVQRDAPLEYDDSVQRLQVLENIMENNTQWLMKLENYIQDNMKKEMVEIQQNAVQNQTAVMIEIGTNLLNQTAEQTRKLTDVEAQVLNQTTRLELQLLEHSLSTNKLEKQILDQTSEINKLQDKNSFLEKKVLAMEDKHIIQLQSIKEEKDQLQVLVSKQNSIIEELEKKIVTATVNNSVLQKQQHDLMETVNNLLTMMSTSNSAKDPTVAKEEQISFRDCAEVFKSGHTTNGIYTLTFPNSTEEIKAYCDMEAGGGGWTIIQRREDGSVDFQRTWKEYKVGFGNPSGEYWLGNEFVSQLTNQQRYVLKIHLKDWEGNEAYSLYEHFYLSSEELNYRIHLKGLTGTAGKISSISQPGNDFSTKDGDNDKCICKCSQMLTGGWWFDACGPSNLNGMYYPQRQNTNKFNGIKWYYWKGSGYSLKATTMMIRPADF
In words: Ang2-Tie2 binding competition ELISA. Conditions: antibody 400 nM to 0.001 nM; 400 ng/ml FLAG-tagged hAng2; hTie2-Fc coated plate. How it is done: Ang2-Tie2 binding competition ELISA was conducted using the antibody binding to Ang2 prepared in Example 2-1 above.
More specifically, MaxiSorp™ flat-bottom plate (Nunc) of 96-well was coated with hTie2-Fc (R&D Systems) which is a protein bound with 4 ug (microgram)/ml of Fc of human IgG1. After that, the plate was washed five times with 0.05% (v/v) Tween-20-containing PBS (phosphate buffer saline) and then blocked with 1% (v/v) BSA (bovine serum albumin; Sigma)-containing PBS at a room temperature for 2 hour.
For Ang2:Tie2 competition ELISA, each anti-Ang2 antibody obtained in Example 2 was placed at various concentrations of 400 nM to 0.001 nM into each well coated with the hTie-2/Fc fusion protein along with 1% (v/v) BSA and 400 ng/ml of a FLAG-tagged hAng2 and then, the plate was allowed to react at a room temperature for 2 hours and washed five times with PBST. […] Lastly, 100 ul (microliter) of TMB substrate (Cell Signaling) was added to each well of the plate to induce color development for 3 min. and then, the reaction was ceased by the addition of 100 ul of Stop solution (Cell Signaling) and OD450 values were measured on a plate reader (Molecular Devices). […]

B1: 4H10: anti-Ang2 antibody inhibiting Ang2-Tie2 binding; heavy chain variable region SEQ ID NO: 12, light chain variable region SEQ ID NO: 13 (antibody, V domains shown)
VH: EVQLLESGGGLVQPGGSLRLSCAASGFTFSSYDMSWVRQAPGKGLEWVSLISPDSSSIYYADSVKGRFTISRDNSKNTLYLQMNSLRAEDTAVYYCAKDLISFWRGGFDYWGQGTLVTVSS
VL: QSVLTQPPSASGTPGQRVTISCSGSSSNIGSNYVNWYQQLPGTAPKLLIYADSNRPSGVPDRFSGSKSGTSASLAISGLRSEDEADYYCGSWDYSLSGYVFGGGTKLTVLG
modifications: Synthetic (heavy chain variable region of 4H10); Synthetic (light chain variable region of 4H10)
In the case of B1, the “tumor size decreased by, compared to the control” value in the assay with LLC tumor was found to be 29.2%. Moreover, the “inhibition of growth of the tumor compared to the control group” value in assay [1] is given as “about 27%”. In addition, in the assay with Ang2-Tie2 binding, the “inhibition of Ang2-Tie2 binding” value is given as “inhibiting Ang2-Tie2 binding”.
